Measurements reported in the supplement of paper PMC12764529.
± gives the half width of the 95% confidence interval.

Key:
[1] = folding stability dG unfold from trypsin proteolysis; higher = more stable
Method in brief: (§1)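 Mini-proteins designed to be under 80 residues and free of cysteine were carried in a PA-tagged cDNA display construct and digested with trypsin and with chymotrypsin. Each protease was applied at 11 threefold-diluted concentrations, alongside a no-protease condition, before sequencing. K50 came from Bayesian fitting of the sequencing counts, and unfolding free energy was obtained by comparing it with a sequence-predicted unfolded-state K50 and a shared folded-state K50, for each protease separately or for both together. Designs were retained only if their AlphaFold2 dimer inter-PAE exceeded 15.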

[2] = folding stability dG unfold from chymotrypsin proteolysis; higher = more stable
Method in brief: as §1

[3] = folding stability dG unfold (combined trypsin and chymotrypsin); higher = more stable
Method in brief: as §1

| Sequence | folding stability dG unfold [1] [kcal/mol] | folding stability dG unfold [2] [kcal/mol] | folding stability dG unfold [3] [kcal/mol] |
| --- | --- | --- | --- |
| SAGGSAGGSAGPLTLTATFLSDYNYAVTVTLTFEVDENGNLSVSGEVEIRPVPPLGPGNASAGGSAGGSAGG [r11_728_TrMRF] | 2.42 ± 0.1 | 4.05 ± 0.11 | 3.72 ± 0.15 |
| SAGGSAGGSAGPMEVERETIMIPIDPDKGYYIMIDVWRYKNPGGPPFPAPSISIMDLDDLSAGGSAGGSAGG [r11_51_TrROS] | 1.78 ± 0.072 | 3.11 ± 0.045 | 2.68 ± 0.11 |
| SAGGSAGGSAGPNIYVSIKWKHNNGPVTHQIPIPPNDPPEILDEMSKQPGFKVTDIEVMPSAGGSAGGSAGG [r11_692_TrROS] | -0.836 ± 0.35 | -0.0146 ± 0.3 | -0.213 ± 0.25 |
| SAGGSAGGSAGPNNMYPYEITIEVRDDGKPVKIKIEMYMSPNGEPMPPEQIKNFAKELAKSAGGSAGGSAGG [r17_373_TrROS] | 0.382 ± 0.24 | 0.444 ± 0.17 | 0.398 ± 0.23 |
| SAGGSAGGSAGPNWKKYTFTIFFPGYPFRVEIERPKDGPNAPLAIKIEDPNGKPMETFPISAGGSAGGSAGG [r11_223_TrROS] | 2.71 ± 0.11 | 2.61 ± 0.082 | 2.67 ± 0.12 |
| SAGGSAGGSAGPPDQNFLIKIKWQENGKKREHTIPIPAENLDEVLDELSPWPGLEVEIIPSAGGSAGGSAGG [r17_50_TrROS] | -0.408 ± 0.085 | -0.295 ± 0.11 | -0.376 ± 0.19 |
| SAGGSAGGSAGPPIMVMVHKHDKEDGKPKIDESIPIDIPPDQQDKLKEEANERGYHVHPFSAGGSAGGSAGG [r17_18_TrROS] | 0.207 ± 0.054 | 0.0379 ± 0.11 | 0.158 ± 0.091 |
| SAGGSAGGSAGPPNKPVYVRVRIQMPNGKKKTFWFKDVEQIEKNLKEEFGIRDIEIEPIKSAGGSAGGSAGG [r17_508_TrROS] | 1.62 ± 0.028 | 1.71 ± 0.026 | 1.67 ± 0.046 |
| SAGGSAGGSAGPTLTLELLFRNEDGSLYAVRVRYDLDTDKVEIEVRRLPPAEPVTVTVEDSAGGSAGGSAGG [r11_657_TrROS_Hall] | 2.8 ± 0.12 | 4.26 ± 0.052 | 3.7 ± 0.17 |
| SAGGSAGGSAGPTVASVEVLEYDPETGYLTVRIYIPDNGEWVDVKAPVGTAEEIVKAAEKSAGGSAGGSAGG [r17_111_TrMRF] | 0.463 ± 0.077 | 1.49 ± 0.048 | 1.16 ± 0.14 |
| SAGGSAGGSAGPVKLTLEVPEEEAEELAEALREAGYEVEIERDEETKRLRVTITVDPEALSAGGSAGGSAGG [r11_1043_TrROS_Hall] | 1.78 ± 0.095 | 2.2 ± 0.056 | 2.01 ± 0.12 |
| SAGGSAGGSAGPVKTVEVEIPGMSEEELLALLPPGVKRVEIEREEVEPGRVRLRIKVYEESAGGSAGGSAGG [r11_1002_TrROS_Hall] | 0.307 ± 0.062 | 1.3 ± 0.051 | 0.977 ± 0.059 |
| SAGGSAGGSAGPVTITIKVPKEDEEEIEALARELAAALPPPEGAKVTVERNEDGTITITLSAGGSAGGSAGG [r17_324_TrROS_Hall] | 1.56 ± 0.15 | 1.6 ± 0.06 | 1.62 ± 0.12 |
| SAGGSAGGSAGPVVVEVDGKLVIFNPEDGTVTVFEFDKDGKLVEEKEFTVPPEVTLVEEDSAGGSAGGSAGG [r17_385_TrROS_Hall] | 1.42 ± 0.11 | 1.06 ± 0.039 | 1.27 ± 0.13 |
| SAGGSAGGSAGRRLVLEFDDESLAVPAAEFLERVLGLELVSIERVPDGERERVLVVLDFPSAGGSAGGSAGG [r11_232_TrMRF] | 1.78 ± 0.036 | 2.45 ± 0.05 | 2.21 ± 0.09 |
| SAGGSAGGSAGSEIAEAIKKALEEAGVKEVKIEKVGPEPNVFRITFENGETIEITLPEDLSAGGSAGGSAGG [r11_765_TrROS_Hall] | 2.28 ± 0.15 | 2.19 ± 0.037 | 2.21 ± 0.1 |
| SAGGSAGGSAGSGTMFDFGSASVETLEEDPNGRVLVKVTLPDSEYLLEIVKGELVKIEPRSAGGSAGGSAGG [r17_396_JUSTAS] | -0.274 ± 0.28 | 0.858 ± 0.059 | 0.569 ± 0.12 |
| SAGGSAGGSAGSIGFDSLEEAEKAIEEARRNNVPLTIELRLPDGSTLRIPVDLEIPEDDPSAGGSAGGSAGG [r17_462_TrMRF] | 1.7 ± 0.056 | 1.19 ± 0.037 | 1.46 ± 0.12 |
| SAGGSAGGSAGSLELEFEFPKDTPLDKIIEELKKLIPEKDPKIEILKVEEKEGGLWIKARVSSAGGSAGGSA [r18_360_TrMRF] | 3.55 ± 0.085 | 3.11 ± 0.042 | 3.26 ± 0.05 |
| SAGGSAGGSAGSLLTETSESVINDTKITHVLEIDPSSGALRLILETKHPDPGIVTVELLPSAGGSAGGSAGG [r17_242_JUSTAS] | 0.943 ± 0.023 | 0.857 ± 0.061 | 0.885 ± 0.072 |
| SAGGSAGGSAGSMEPVKTEELESGEVRTVSLLPDGTIKEELIKIEGEGETVETKVVPLEESAGGSAGGSAGG [r11_699_JUSTAS] | 0.745 ± 0.065 | 1.68 ± 0.1 | 1.48 ± 0.2 |

| Sequence | folding stability dG unfold [1] [kcal/mol] | folding stability dG unfold [2] [kcal/mol] | folding stability dG unfold [3] [kcal/mol] |
| --- | --- | --- | --- |
| SAGGSAGGSAGSMIEEAVEAAKASGDPDVTVDLETPEGRVTVTVTVDPATGTVTVTTSPESAGGSAGGSAGG [r17_475_JUSTAS] | 1.21 ± 0.033 | 2.21 ± 0.077 | 1.86 ± 0.091 |
| SAGGSAGGSAGSMLLSLSIASVETTETTEIDPETGEKRKVTTTTITIPGTGQTITLTETVESAGGSAGGSAG [r3_424_JUSTAS] | 1.83 ± 0.058 | 0.532 ± 0.07 | 1.28 ± 0.065 |
| SAGGSAGGSAGSMSVSVTKLPNGDYVVTTTTSETSTSTTGSTPVTTTTTTTTVTTLPSSSSAGGSAGGSAGG [r17_432_JUSTAS] | 2.21 ± 0.048 | 0.775 ± 0.023 | 1.57 ± 0.046 |
| SAGGSAGGSAGSMSVTLSTTVEVTVEPLPDYTIVTVTTTTTFPDGSTTTTVTTTPVPPDLGSAGGSAGGSAG [r3_330_JUSTAS] | 0.957 ± 0.24 | 1.8 ± 0.15 | 1.68 ± 0.22 |
| SAGGSAGGSAGSMTLSTSTSTTPTSLTTTTTTTTYDPTTGTTTTTSTTTTTALPAAPPSSTASAGGSAGGSA [r18_16_JUSTAS] | 0.0685 ± 0.064 | 1.64 ± 0.03 | 1.37 ± 0.13 |
| SAGGSAGGSAGSMTPAEEKAREVEERLRREHPEFERVFVRVKEFRPETGEVTIEVEVEPRSAGGSAGGSAGG [r11_617_JUSTAS] | 0.292 ± 0.061 | -0.641 ± 0.27 | -0.0464 ± 0.12 |
| SAGGSAGGSAGSMTSISVDVPVPGKNVVTVTVTLPPNTTTVTITVEPLPNGELKVTVETSSAGGSAGGSAGG [r11_657_JUSTAS] | 2.89 ± 0.07 | 2.5 ± 0.061 | 2.78 ± 0.1 |
| SAGGSAGGSAGSMTVTLTITDPRNSATTTYTVPSSNYEEFLKANPEIEKNGWTVTVDTNGSAGGSAGGSAGG [r17_176_JUSTAS] | 1.15 ± 0.044 | 0.903 ± 0.15 | 1.05 ± 0.13 |
| SAGGSAGGSAGSPDRPRRVEPVPVVTYKDPDLGKEFTSPEEIEKTKEELEKKGLSVEVSASAGGSAGGSAGG [r17_289_JUSTAS] | -0.209 ± 0.13 | 0.482 ± 0.1 | 0.289 ± 0.15 |
| SAGGSAGGSAGSPVVTTEKVKTEGNTTVYRVTEPALNTETLVTEDAGANPTIKTTTYNTPSAGGSAGGSAGG [r11_738_JUSTAS] | -0.955 ± 0.21 | -0.937 ± 0.83 | -0.747 ± 0.24 |
| SAGGSAGGSAGSTVTLELEIDGVRITVKAELTPDGELRLTITEVEVLPPPPVVHPDDPEALKSAGGSAGGSA [r18_176_TrROS_Hall] | 1.54 ± 0.049 | 1.1 ± 0.064 | 1.33 ± 0.11 |
| SAGGSAGGSAGSTVTLTVDPDTNVATLTAIIGGKPVTATLTFIPNTGKARLPDGTWIDISSAGGSAGGSAGG [r11_395_TrMRF] | 1.43 ± 0.034 | 1.03 ± 0.051 | 1.28 ± 0.069 |
| SAGGSAGGSAGSVTVTFISLEEGERYLVLTELRFGDYGIESRSTRIEVSDEKLEELKKAFSAGGSAGGSAGG [r11_47_TrMRF] | 1.52 ± 0.072 | 2.12 ± 0.036 | 2 ± 0.12 |
| SAGGSAGGSAGSVTVTLSSDPDKTFTVTLPGGETVTFQPTPTNQVTVTVTSPTTPVTVTVSSAGGSAGGSAG [r3_334_JUSTAS] | 1.96 ± 0.074 | 0.636 ± 0.084 | 1.43 ± 0.096 |
| SAGGSAGGSAGSYTVTPITLKLPDGTEVDAVLTTDPAGNVTLTLTGDSPLSTLTFPASTLSAGGSAGGSAGG [r11_327_JUSTAS] | 0.119 ± 0.026 | 1.6 ± 0.039 | 1.18 ± 0.049 |
| SAGGSAGGSAGTAEEIAKALEEAGFKVEKLPDGTLKVTVRNPETEETVEITLTLEEIEKLSAGGSAGGSAGG [r11_994_TrROS_Hall] | 2.38 ± 0.084 | 2.22 ± 0.051 | 2.33 ± 0.1 |
| SAGGSAGGSAGTIRIKMKDGKPMEFPLKGLPKEDLDDPEFLDWIKDWARDSGMKIDDIEISAGGSAGGSAGG [r11_467_TrROS] | -0.62 ± 0.22 | 1.09 ± 0.072 | 0.608 ± 0.14 |
| SAGGSAGGSAGTITTPTAEFTVTLDPNGTYTVTYQNTTTTVPVGAPFTLPGGEPLTVVPASAGGSAGGSAGG [r11_147_JUSTAS] | 0.0786 ± 0.069 | 0.931 ± 0.11 | 0.601 ± 0.13 |
| SAGGSAGGSAGTMTAEEIAKALGAKVVEVYPDKVVIEIEVDGKKYRITINEDGEVTVEEVSAGGSAGGSAGG [r17_252_TrROS_Hall] | 2.62 ± 0.11 | 4.47 ± 0.15 | 4.02 ± 0.21 |
| SAGGSAGGSAGVEINIFMPSWEQAKHRAKSIARELRERGLPPNAEIKIKIHPIDPEDMGPSAGGSAGGSAGG [r17_180_TrROS] | -0.0827 ± 0.13 | -0.576 ± 0.15 | -0.226 ± 0.25 |
| SAGGSAGGSAGVKSVGPIIYPNGEVFGDVKAEEETLPNGKKKLKIYATFSDGSKYEFTLDSAGGSAGGSAGG [r11_810_TrMRF] | -0.261 ± 0.34 | 0.728 ± 0.13 | 0.325 ± 0.26 |
